# In publication PMC12529230, “The Lrs14‐Like AbfR1 Homolog From Metallosphaera sedula Is a Nucleoid‐Organizing Protein” (MicrobiologyOpen, 2025):
# T1: AbfR1Ms (Metallosphaera sedula DSM5348, UniProt A4YIR2 1-115)
# T1 sequence: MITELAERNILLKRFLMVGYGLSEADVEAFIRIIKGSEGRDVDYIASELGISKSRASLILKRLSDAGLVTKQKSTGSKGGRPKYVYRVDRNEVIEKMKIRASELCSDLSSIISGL
# What was measured:
# AbfR1Ms = biological target: T1, AbfR1Ms; assay: EMSA; apparent; salmon sperm competitor DNA; EMSA: 20 mM Tris-HCl pH 8.0, 50 mM NaCl, 0.4 mM EDTA, 0.1 mM DTT, 1 mM MgCl2, 12.5% glycerol, 25 ug/mL sonicated salmon sperm DNA, 25 min at 37 C; AFM: same buffer, 15 min at 37 C, then NiCl2/HEPES adsorption on mica; details: protein: recombinant; tags: C-terminal His; chain copies: 2; label: 5'-32P on one strand; blunt
# [1] = biological target: the molecule itself; assay: SEC; Enrich SEC 650 10 x 300 column, 20 mM HEPES, 150 mM NaCl, 1 mM DTT, 5% glycerol, pH 7.5; AbfR1 Ms concentrated to 1.9 mg/mL; MW from a standard curve
Binder,Kd (AbfR1Ms) [nM],stoichiometry N [1]
ORF abfR1Sa (dsDNA) DNA 1: GTCTTTCTGAATCAGAAATAGACACATTTCTAAGGATACTTGAAAGCAAAGAAGGTAAGGATATTGATGCAATATCTGCAGAACTAAAAATTAGTAAAAG DNA 2: CTTTTACTAATTTTTAGTTCTGCAGATATTGCATCAATATCCTTACCTTCTTTGCTTTCAAGTATCCTTAGAAATGTGTCTATTTCTGATTCAGAAAGAC,546,–
"AbfR1 Ms (recombinant, C-terminal His-tag) (natural protein, Metallosphaera sedula, UniProt A4YIR2 1-115, looked up, 115 amino acids, estimated MW 12.7 kDa; codon-optimized synthetic gene fragment (446 bp) cloned NdeI/XhoI into pET24a; No tag cleavage is described; A disulfide bridge between the two chains is proposed (C105, from an AlphaFold model and DTT sensitivity); also called Lrs14-like AbfR1 homolog from Metallosphaera sedula; HhcR; source: E. coli Rosetta (DE3), pET24a; purified (heat treatment 70°C, …)) MITELAERNILLKRFLMVGYGLSEADVEAFIRIIKGSEGRDVDYIASELGISKSRASLILKRLSDAGLVTKQKSTGSKGGRPKYVYRVDRNEVIEKMKIRASELCSDLSSIISGL",–,2
